The target of experiment [1] is EBV-LMP2 peptide/HLA-A*02:01 complex as naturally presented on HLA-A*02:01+ EBV+ cells (BLCL, tumour cell lines) (human; Epstein-Barr virus). Nature of the experiment: cell-based or functional assay.
The target in experiment [2] is EBV-LMP2 peptide presented by HLA-A*02:06 on artificial antigen presenting cells (human; Epstein-Barr virus).
Experiment [3] deals with P19 peptide (mixture of 19 endogenous control peptides) loaded T2 cell. In words: flow cytometry, phage antibody on peptide loaded T2 cells. (In general: Flow cytometry measures light scatter and fluorescence of single cells or particles in a stream.)

Residue numbers refer to the chain shown, from its start.

B1: LMP2-38 Dimeric BsAb (bispecific antibody, part only)
VH: QSALTQPASVSGSPGQSITISCTGTSSDVGSYNDVSWYQQHPGKAPKLMIYDVSNRPSGVSNRFSGSKSGNTASLTISGLQTEDEADYYCNSYTSSNTYVFGTGTKVTVLG
VL: QVQLVQSGAEVKKPGASVQVSCRASGYTITSYYMHWVRQAPGQGLEWMGVINPNAGSTRYAQKFQGRVTMSTDTSTSTVYMALSSLRSDDTAVYYCARGMYRMYDWGQGTLVTVSS
chain 1: DVQLVQSGAEVKKPGASVKVSCKASGYTFTRYTMHWVRQAPGQGLEWIGYINPSRGYTNYADSVKGRFTITTDKSTSTAYMELSSLRSEDTATYYCARYYDDHYSLDYWGQGTTVTVSSGEGTSTGSGGSGGSGGADDIVLTQSPATLSLSPGERATLSCRASQSVSYMNWYQQKPGKAPKRWIYDTSKVASGVPARFSGSGSGTDYSLTINSLEAEDAATYYCQQWSSNPLTFGGGTKVEIK
chain 2: RTPLGDTTHTSGMVSKLSQLQTELLAALLESGLSKEALIQALGEGSGGAPHHHHHH
On to B1, for which, in experiment [1], the % Max Killing, DT BLCL (T cell dependent cytotoxicity, 51Cr release) was found to be 39.9%; the % Max Killing, F BLCL (T cell dependent cytotoxicity, 51Cr release) was 25.8%; the % Max Killing, HONE-1-A2 (T cell dependent cytotoxicity, 51Cr release) amounted to 16.8%; the % Max Killing, RPMI-6666 (T cell dependent cytotoxicity, 51Cr release) came to 26.5%. In experiment [1], the EC50 (µg/mL), DT BLCL (T cell dependent cytotoxicity) was 0.025 µg/mL; the EC50 (µg/mL), F BLCL (T cell dependent cytotoxicity) was determined as 0.033 µg/mL; the EC50 (µg/mL), HONE-1-A2 (T cell dependent cytotoxicity) was 0.024 µg/mL; the EC50 (µg/mL), RPMI-6666 (T cell dependent cytotoxicity) turned out to be 0.037 µg/mL.

B2: LMP2-38 IgG1 (antibody, V domains shown)
VH: B1 VL
VL: B1 VH
In experiment [2], B2 came in with a number beside the legend entry (name not given; FL2-H histogram) of 81.5.

B3: LMP2-38-11 (antibody, name in Kabat numbering, V domains shown)
VH: B1 VL with G26E, I51V
VL: B1 VH
Regarding B3, the ratio of specific phage antibody FACS signal to negative control FACS signal in experiment [3] is 2 to 10.

These data come from patent US20180258187A1.
